From paper PMC6376114, “The Y. bercovieri Anbu crystal structure sheds light on the evolution of highly (pseudo)symmetric multimers” (Journal of molecular biology, 2017)
Where “and” joins values, the source holds several entries; their conditions need not be identical. Equal entries are not always repeated.

How the values were obtained:
YbATP-grasp [1] = target: T1, YbATP-grasp (Yersinia bercovieri, UniProt A0ABP2E091); test: differential scanning fluorimetry (thermofluor); format: binding; settings: strong destabilization in presence of ATP; shift size not given
T1 construct: gene yberc0001_40; N-terminally His-tagged (pQLinkH), E. coli ER2566 host; 780 kDa, 14-mer by sedimentation equilibrium; gene from the four-gene Anbu operon (ATP-grasp, alphaE, transglutaminase, Anbu)
T1 sequence (A0ABP2E091 1-478): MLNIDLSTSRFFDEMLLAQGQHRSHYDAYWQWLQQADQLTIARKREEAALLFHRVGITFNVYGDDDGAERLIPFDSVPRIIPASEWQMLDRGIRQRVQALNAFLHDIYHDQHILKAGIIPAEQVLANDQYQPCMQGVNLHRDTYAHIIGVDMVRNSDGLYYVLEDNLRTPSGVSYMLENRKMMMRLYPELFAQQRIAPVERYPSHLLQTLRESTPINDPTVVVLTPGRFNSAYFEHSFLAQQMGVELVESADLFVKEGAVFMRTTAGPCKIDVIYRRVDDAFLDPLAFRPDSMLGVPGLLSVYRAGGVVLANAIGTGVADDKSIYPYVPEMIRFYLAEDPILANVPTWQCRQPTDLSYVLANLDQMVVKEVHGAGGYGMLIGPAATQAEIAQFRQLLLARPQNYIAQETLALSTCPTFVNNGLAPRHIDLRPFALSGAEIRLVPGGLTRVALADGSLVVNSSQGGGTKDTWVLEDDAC

YbATP-grasp [2] = target: T1, YbATP-grasp; test: […]-orthophosphate release, thin-layer chromatography and autoradiography; format: biochemical; settings: 50 mM Tris pH 7.5, 150 mM KCl, 5 mM MgCl2, 1 mM ATP, RT; labelled compound
[3] = target: ATP-grasp protein encoded in the Y. bercovieri Anbu operon, N-terminally His-tagged (Yersinia bercovieri); test: AUC; sedimentation equilibrium of YbATP-grasp at 4000, 7000 and 9000 rpm, buffer D in the reference sector, global fit (SEDPHAT)
[4] = target: Yersinia bercovieri Anbu (ancestral beta subunit), V14A/G107H variant (Yersinia bercovieri); test: SEC; Superose 6 30/100 column, 0.5 ml/min, buffer D (50 mM Tris pH 7.5, 300 NaCl, 1 mM EDTA); calibrated with BioRad standards, yeast 20S and EcHslV
[5] = target: Yersinia bercovieri Anbu (ancestral beta subunit), V14A/G107H variant (Yersinia bercovieri); test: AUC; sedimentation equilibrium of YbAnbu at 4000, 7000 and 9000 rpm, buffer B in the reference sector, global fit (SEDPHAT)
[6] = target: Yersinia bercovieri Anbu (ancestral beta subunit), V14A/G107H variant (Yersinia bercovieri); test: AUC; sedimentation velocity, 40,000 rpm, 20 °C, buffer D, continuous c(s) distribution model (SEDFIT)
[7] = target: Yersinia bercovieri Anbu (ancestral beta subunit), V14A/G107H variant (Yersinia bercovieri); test: crystal structure; sitting drop vapor diffusion, 100 mM BIS-TRIS propane/HCl pH 6.7-7.1, 200 mM Na2SO4, 18% PEG 3350, 7.5% ethylene glycol; space group P21, 2.5 Å, two 14-mers in the asymmetric unit

## Nc1ncnc2c1ncn2[C@@H]1O[C@H](COP(=O)(O)OP(=O)(O)OP(=O)(O)O)[C@@H](O)[C@H]1O [ATP]
YbATP-grasp [1]
  differential scanning fluorimetry (thermofluor): indicated strong destabilization of YbATP-grasp in the presence of ATP, but not ADP
YbATP-grasp [2]
  32P-orthophosphate release, thin-layer chromatography and autoradiography: The YbATP-grasp protein led to robust production of orthophosphate

## ATP-grasp protein encoded in the Y. bercovieri Anbu operon, N-terminally His-tagged (natural protein)
[3]
  stoichiometry N: 14

## Yersinia bercovieri Anbu (ancestral beta subunit), V14A/G107H variant (natural protein)
[4]
  stoichiometry N: 9 and 5 and 14
[5]
  stoichiometry N: 14
[6]
  stoichiometry N: 12
[7]
  stoichiometry N: 14
